Reference: patent US20240209093A1 (I MAB BIOPHARMA, published 2024)

T1: His-tagged human TIGIT-ECD protein (human, UniProt Q495A1 22-141)
T1 construct: extracellular domain; also called hTIGIT-his
T1 sequence (looked up): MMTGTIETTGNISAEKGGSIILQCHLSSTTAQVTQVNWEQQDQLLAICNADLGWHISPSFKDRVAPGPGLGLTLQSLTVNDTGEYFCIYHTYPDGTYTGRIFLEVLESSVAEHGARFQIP


What was measured:
human PD-L1-his [1] = biological target: T2, human PD-L1-his (human, UniProt Q9NZQ7 19-238); assay: SPR, Biacore, full kinetics, antigen 100-1.5625 nM
T2 construct: also called hPD-L1-his; human His-PD-L1
T2 sequence (Q9NZQ7 19-238 limits assumed): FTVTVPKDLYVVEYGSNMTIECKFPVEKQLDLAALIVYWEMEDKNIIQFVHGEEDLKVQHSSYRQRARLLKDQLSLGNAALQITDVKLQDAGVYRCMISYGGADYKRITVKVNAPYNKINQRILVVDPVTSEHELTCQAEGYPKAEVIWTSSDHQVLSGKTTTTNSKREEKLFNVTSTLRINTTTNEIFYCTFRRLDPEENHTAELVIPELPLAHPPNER

human PD-L1-his [2] = biological target: T2, human PD-L1-his; assay: SPR, Biacore T200
Tag1-CD47 = biological target: T3, Tag1-CD47 (UniProt Q08722 19-139); assay: HTRF CD47/SIRPα binding assay (Cisbio): blocking of Tag2-SIRPa binding to Tag1-CD47; axis numbers -3 to 3 read as log10 of nM
T3 construct: Bought kit reagent
T3 sequence (Q08722 19-139 limits assumed): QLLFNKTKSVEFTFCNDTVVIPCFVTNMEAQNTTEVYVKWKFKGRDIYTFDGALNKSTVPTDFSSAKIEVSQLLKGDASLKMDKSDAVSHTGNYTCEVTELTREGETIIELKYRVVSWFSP
Description: Fluorescence data were read on a PerkinElmer Envision plate reader using laser as light source.

[3] = biological target: T1, His-tagged human TIGIT-ECD protein; assay: ELISA on His-tagged human TIGIT
[4] = biological target: T1, His-tagged human TIGIT-ECD protein; assay: SPR, Biacore T200, antibody captured on protein A chip, hTIGIT-his 0.78-12.5 nM as analyte
Description: The antibodies were captured by Protein A chip. […] The association phase was 180 s and the dissociation phase was 1200 s.

human PD-L1-his [5] = biological target: T2, human PD-L1-his; assay: SPR, Biacore T200, antibody captured on protein A chip, hPD-L1-his 6.25-100 nM as analyte
Procedure: The binding affinity of the PD-L1/TIGIT bsAb to recombinant human his-tagged PD-L1 protein was tested by BIACORE®. […] A series of dilutions of human PD-L1 protein (6.25 nM-100 nM) were injected over captured antibody at a flow rate of 10 μL/min. The antigen was allowed to associate for 180 s and dissociate for 1200 s. All the experiments were carried out on a Biacore T200. Data analysis was carried out using Biacore T200 evaluation software.

human PD-L1-his [6] = biological target: T2, human PD-L1-his; assay: ELISA, plate coated with human His-PD-L1, detection goat anti-human IgG Fc HRP [panel A]
Description: Binding of the anti-PD-L1/TIGIT bsAb molecules with human PD-L1 was further analyzed by ELISA.

Row | Binder | Kd (human PD-L1-his [1]) [nM] | koff (human PD-L1-his [1]) [s⁻¹] | kon (human PD-L1-his [1]) [M⁻¹ s⁻¹] | further results
1 | 112-VHH5-PTM (VHH, Humanized) VHH: EVQLVESGGGLVQPGGSLRLSCAASGSIFSSGTQFSDSKIDWYRQAPGKQRDWVAGIFSTGSTIYEDSVKGRFAISRDNAKNSLYLQMNSLRAEDTAVYYCRVIGRGILAWGQGTLVTVSS | 0.92 | 0.00149 | 1.62e+06 | 
2 | ALP-Tan-3p-112 (chimeric) (antibody, V domains shown, not shown: a dimerising Fc or GST; small tags and cut ends, Called chimeric) VH: QVQLVESGGGLVQPGGSLRLSCAASGSIFSSGTNFSDSKIDWYRQAPGKQRDWIAGIFSTGSTIYEDSVKGRFAISRDNAKNMGYLQMNSLKPEDTAVYYCRVIGRGILAWGQGTQVTVSS | 0.264 | 0.000566 | 2.14e+06 | 
3 | 112-VHH3-PTM (VHH, Humanized) VHH: EVQLVESGGGLVQPGGSLRLSCAASGSIFSSGTQFSDSKIDWYRQAPGKQREWVSGIFSTGSTIYEDSVKGRFTISRDNAKNSLYLQMNSLRAEDTAVYYCRVIGRGILAWGQGTLVTVSS | 2.4 | 0.00498 | 2.07e+06 | 
4 | ALP-Tan-3p-112 (VHH) VHH: QVQLVESGGGLVQPGGSLRLSCAASGSIFSSGTNFSDSKIDWYRQAPGKQRDWIAGIFSTGSTIYEDSVKGRFAISRDNAKNMGYLQMNSLKPEDTAVYYCRVIGRGILAWGQGTQVTVSS |  |  |  | Kd (human PD-L1-his [2]): 0.479 nM; koff (human PD-L1-his [2]): 0.000235 s⁻¹; kon (human PD-L1-his [2]): 490000 M⁻¹ s⁻¹
5 | 112-VHH7-PTM (VHH, Humanized) VHH: EVQLVESGGGLVQPGGSLRLSCAASGSIFSSGTQFSDSKIDWYRQAPGKQREWIAGIFSTGSTIYEDSVKGRFAISRDNAKNMLYLQMNSLRAEDTAVYYCRVIGRGILAWGQGTLVTVSS | 2.32 | 0.00393 | 1.69e+06 | 
6 | 13H3 (antibody, V domains shown, also called anti-CD47 antibody 13H3; parental CD47 antibody 13H3) VH: EVQLVESGGGLVKPGGSLRLSCAASGLTFERAWMNWVRQAPGKGLEWVGRIKRKTDGETTDYAAPVKGRFSISRDDSKNTLYLQMNSLKTEDTAVYYCAGSNRAFDIWGQGTMVTVSS VL: DIVMTQSPDSLAVSLGERATINCKSSQSVLYAGNNRNYLAWYQQKPGQPPKLLINQASTRASGVPDRFSGSGSGTEFTLIISSLQAEDVAIYYCQQYYTPPLAFGGGTKLEIK |  |  |  | IC50 (read off the curve) (Tag1-CD47): ~1 nM
7 | 93-VH-2 (VHH, Humanized) VHH: EVQLVESGGGLVQPGGSLRLSCAASGFTFTFRHYVMGWVRQAPGKEREWVSAISWSGSGSYYADSVKGRFTISRDNSKNTVYLQMNSLRAEDTAVYYCAADMTTRMSQASREYDYWGQGTLVTVSS | 26.3 | 0.00162 | 61500 | 
8 | 93-VH-4 (VHH, Humanized) VHH: EVQLVESGGGLVQPGGSLRLSCAASGFTFTFRHYVMGWFRQAPGKGLEFVAAISWSGSGSYYADSVKGRFTISRDNSKNTVYLQMNSLRAEDTAVYYCAADMTTRMSQASREYDYWGQGTLVTVSS | 1.82 | 0.000147 | 80500 | 
9 | 93-VH-9 (VHH, Humanized) VHH: EVQLVESGGGLVQPGGSLRLSCAASGRTFTFRHYVMGWFRQAPGKGLEFVAAISWSGSGSYYADSVKGRFTISRDNSKNTLYLQMNSLRAEDTAVYYCAADMTTRMSQASREYDYWGQGTLVTVSS | 2.2 | 0.00031 | 140000 | 
10 | 93-VH-3 (VHH, Humanized) VHH: EVQLVESGGGLVQPGGSLRLSCAASGFTFTFRHYVMGWFRQAPGKGLEFVAAISWSGSGSYYADSVKGRFTISRDNSKNTLYLQMNSLRAEDTAVYYCAKDMTTRMSQASREYDYWGQGTLVTVSS | 2.36 | 0.00115 | 486000 | 
11 | 93-VH-7 (VHH, Humanized) VHH: EVQLVESGGGLVQPGGSLRLSCAASGFTFTFRHYVMGWFRQAPGKGLEFVAAISWSGSGSYYADSVKGRFTISRDNSKNTLYLQMNSLRAEDTAVYYCAADMTTRMSQASREYDYWGQGTLVTVSS | 3.87 | 0.000339 | 87600 | 
12 | 93-VH-5 (VHH, Humanized) VHH: EVQLVESGGGLVQPGGSLRLSCAASGFTFTFRHYVMGWFRQAPGKEREFVAAISWSGSGSYYADSVKGRFTISRDNSKNTLYLQMNSLRAEDTAVYYCAKDMTTRMSQASREYDYWGQGTLVTVSS | 2.77 | 0.00125 | 452000 | 
13 | 34C5 (antibody, V domains shown, also called anti-CD47 antibody 34C5; parental CD47 antibody 34C5) VH: QVQLVQSGAEVKKPGSSVKVSCKASGYTFSSYYMHWVRQAPGQGLEWMGEINPNNARINFNEKFKTRVTLTVDKSTSTAYMELSSLRSEDTAVYYCTRGYYRYGAWFGYWGQGTLVTVSS VL: DIQMTQSPSSLSASVGDRVTITCRASQDISDYLNWYQQKPGKAPKLLIYYISRLHSGVPSRFSGSGSGTDYTLTISSLQPEDFATYYCQQGHTLPWTFGGGTKVEIK |  |  |  | IC50 (read off the curve) (Tag1-CD47): ~0.7 nM
14 | TIGIT antibody (antibody, V domains shown, Only variable domains are tied to the parental antibody; also called TIGIT Ab; parental TIGIT antibody) VH: EVKLVESGGGLVQPGGSLRLSCAASGFTFSDYYMYWVRQAPGKRLEWVASITKGGGSTYYPDTLKGRFTISRDNAKNSLYLQMNRLRAEDTAVYYCARQSSYDFVMDYWGQGTTVTVSS VL: DIVMTQSPSSLSASVGDRVTITCKASQDVDTAVAWYQQKPGKAPKLLIYWASARHTGVPSRFSGSGSGTDFTFTISSLQPEDIATYYCQQYSNYPLTFGQGTKLEIK |  |  |  | EC50 (read off the curve) [3]: ~0.2 nM; Kd [4]: 0.144 nM; koff [4]: 0.000172 s⁻¹; kon [4]: 1.19e+06 M⁻¹ s⁻¹
15 | ASP-3P-46 (VHH, also called ASP-30-46) VHH: QVQLVESGGGLVQPGGSLRLSCAASARSINGMEWYRQAPGERRELVAGITAGGSAYYTDTVKGRFTISRDNAENTGYLQMNSLSPDDTAVYYCRRQYGPNWYWGQGTQVTVSS |  |  |  | Kd (human PD-L1-his [2]): 1.81 nM; koff (human PD-L1-his [2]): 0.00128 s⁻¹; kon (human PD-L1-his [2]): 710000 M⁻¹ s⁻¹
16 | TIGIT-Fc-93-VH6 (bispecific antibody, human IgG1, kappa, Two 93-VH6 fused to the C-termini of the anti-TIGIT heavy chains; also called TIGIT-Fc-PD-L1 format) heavy: not shown light: DIVMTQSPSSLSASVGDRVTITCKASQDVDTAVAWYQQKPGKAPKLLIYWASARHTGVPSRFSGSGSGTDFTFTISSLQPEDIATYYCQQYSNYPLTFGQGTKLEIKRTVAAPSVFIFPPSDEQLKSGTASVVCLLNNFYPREAKVQWKVDNALQSGNSQESVTEQDSKDSTYSLSSTLTLSKADYEKHKVYACEVTHQGLSSPVTKSFNRGEC |  |  |  | EC50 (read off the curve) [3]: ~0.5 nM; Kd (human PD-L1-his [5]): 1.15 nM; koff (human PD-L1-his [5]): 4.25e-05 s⁻¹; kon (human PD-L1-his [5]): 37100 M⁻¹ s⁻¹; Kd [4]: 0.112 nM; koff [4]: 0.000139 s⁻¹; kon [4]: 1.24e+06 M⁻¹ s⁻¹; EC50 (read off the curve) (human PD-L1-his [6]): ~2 nM
17 | TIGIT-Fc-93-VH6*2 (bispecific antibody, human IgG1, kappa, Four 93-VH6, two in tandem at the C-terminus of each anti-TIGIT heavy chain; also called TIGIT-Fc-PD-93-VH6*2; TIGIT-Fc-PD-L1*2 format) heavy: not shown light: DIVMTQSPSSLSASVGDRVTITCKASQDVDTAVAWYQQKPGKAPKLLIYWASARHTGVPSRFSGSGSGTDFTFTISSLQPEDIATYYCQQYSNYPLTFGQGTKLEIKRTVAAPSVFIFPPSDEQLKSGTASVVCLLNNFYPREAKVQWKVDNALQSGNSQESVTEQDSKDSTYSLSSTLTLSKADYEKHKVYACEVTHQGLSSPVTKSFNRGEC |  |  |  | EC50 (read off the curve) [3]: ~0.6 nM; Kd (human PD-L1-his [5]): 5.4 nM; koff (human PD-L1-his [5]): 0.000118 s⁻¹; kon (human PD-L1-his [5]): 21900 M⁻¹ s⁻¹; Kd [4]: 0.0912 nM; koff [4]: 0.000131 s⁻¹; kon [4]: 1.43e+06 M⁻¹ s⁻¹; EC50 (read off the curve) (human PD-L1-his [6]): ~0.8 nM
18 | ALP-Tan-3p-93 (chimeric) (antibody, V domains shown, not shown: a dimerising Fc or GST; small tags and cut ends, Called chimeric; also called ALP-Tan-3p-93 chimeric antibody) VH: QVQLVESVGGLVQPGDSLRLSCLASGRTFTFRHYVMGWFRQAPGKEREFVAAISWSGSGSYYADSVKGRFTISRDNSKNMVFLQMNGLKPEDTAVYYCAADMTTRMSQASREYDYWGQGTQVTVSS | 0.559 | 0.000107 | 192000 | 
19 | ALP-Tan-3p-93 (VHH) VHH: QVQLVESVGGLVQPGDSLRLSCLASGRTFTFRHYVMGWFRQAPGKEREFVAAISWSGSGSYYADSVKGRFTISRDNSKNMVFLQMNGLKPEDTAVYYCAADMTTRMSQASREYDYWGQGTQVTVSS |  |  |  | Kd (human PD-L1-his [2]): 0.459 nM; koff (human PD-L1-his [2]): 7.8e-05 s⁻¹; kon (human PD-L1-his [2]): 154000 M⁻¹ s⁻¹
20 | 93-VH-8 (VHH, Humanized) VHH: EVQLVESGGGLVQPGGSLRLSCAASGRTFTFRHYVMGWFRQAPGKGLEFVAAISWSGSGSYYADSVKGRFTISRDNSKNTVYLQMNSLRAEDTAVYYCAADMTTRMSQASREYDYWGQGTLVTVSS | 1.8 | 0.000239 | 133000 | 
